Measured values reported in PMC3742642 (Structure (London, England : 1993), 2013).

How the values were obtained:
cryo-EM structure = biological target: the molecule itself; experiment: cryo-EM structure
crystal structure = biological target: the molecule itself; experiment: crystal structure
SEC = biological target: the molecule itself; experiment: SEC

Row | Protein | stoichiometry N (cryo-EM structure) | stoichiometry N (crystal structure) | stoichiometry N (SEC)
1 | bacteriophage ϕ6 capsid protein P1, wild type, in P1247 procapsids (natural protein) FNLKVKDLNGSARGLTQAFAIGELKNQLSVGALQLPLQFTRTFSASMTSELLWEVGKGNIDPVMYARLFFQYAQAGGALSVDELVNQFTEYHQSTACNPEIWRKLTAYITGSSNRAIKADAVGKVPPTAILEQLRTLAPSEHELFHHITTDFVCHVLSPLGFILPDAAYVYRVGRTATYPNFYALVDCVRASDLRRMLTALSSVDSKMLQATFKAKGALAPALISQHLANAATTAFERSRGNFDANAVVSSVLTILGRLWSPSTPKELDPSARLRNTNGIDQLRSNLALFIAYQDMVKQRGRAEVIFSDEELSSTIIPWFIEAMSEVSPFKLRPINETTSYIGQTSAIDHMGQPSHVVVYEDWQFAKEITAFTPVKLANNSNQRFLDVEPGISDRMSATLAPIGNTFAVSAFVKNRTAVYEAVSQRGTVNSNGAEMTLGFPSVVERDYALDRDPMVAIAALRTGIVDESLEARASNDLKRSMFNYYAAVMHYAVAHNPEVVVSEHQGVAAEQGSLYLVWNVRTELRIPVGYNAIEGGSIRTPEPLEAIAYNKPIQPSEVLQAKVLDLANHTTSIHIWPWHEASTEFAYEDAYSVTIRNKRYTAEVKEFELLGLGQRRERVRILKPTVAHAIIQMWYSWFVEDDRTLAAARRTSRDDAEKLAIDGRRMQNAVTLLRKIEMIGTTGIGASAVHLAQSRIVDQMAGRGLIDDSSDLHVGINRHRIRIWAGLAVLQMMGLLSRSEAEALTKVLGDSNALGMVVATTDIDPSL | 120 |  | 
2 | bacteriophage ϕ6 capsid protein P1, full length, C-terminal His6-tag (natural protein, UniProt P11126 1-769, looked up) MFNLKVKDLNGSARGLTQAFAIGELKNQLSVGALQLPLQFTRTFSASMTSELLWEVGKGNIDPVMYARLFFQYAQAGGALSVDELVNQFTEYHQSTACNPEIWRKLTAYITGSSNRAIKADAVGKVPPTAILEQLRTLAPSEHELFHHITTDFVCHVLSPLGFILPDAAYVYRVGRTATYPNFYALVDCVRASDLRRMLTALSSVDSKMLQATFKAKGALAPALISQHLANAATTAFERSRGNFDANAVVSSVLTILGRLWSPSTPKELDPSARLRNTNGIDQLRSNLALFIAYQDMVKQRGRAEVIFSDEELSSTIIPWFIEAMSEVSPFKLRPINETTSYIGQTSAIDHMGQPSHVVVYEDWQFAKEITAFTPVKLANNSNQRFLDVEPGISDRMSATLAPIGNTFAVSAFVKNRTAVYEAVSQRGTVNSNGAEMTLGFPSVVERDYALDRDPMVAIAALRTGIVDESLEARASNDLKRSMFNYYAAVMHYAVAHNPEVVVSEHQGVAAEQGSLYLVWNVRTELRIPVGYNAIEGGSIRTPEPLEAIAYNKPIQPSEVLQAKVLDLANHTTSIHIWPWHEASTEFAYEDAYSVTIRNKRYTAEVKEFELLGLGQRRERVRILKPTVAHAIIQMWYSWFVEDDRTLAAARRTSRDDAEKLAIDGRRMQNAVTLLRKIEMIGTTGIGASAVHLAQSRIVDQMAGRGLIDDSSDLHVGINRHRIRIWAGLAVLQMMGLLSRSEAEALTKVLGDSNALGMVVATTDIDPSL |  | 5 | 2
